B1: 62 RNA (ssRNA)
RNA: UGGGCCUGGAAUAGUGGGGGCCCAGGGGAAGCUGCGAUGUGCUUCUGAGUGUUUGGAACGAG
B2: UGlow RNA (ssRNA)
RNA: ACAGUCCAGUCGCAGCAGACUCCCUCACAGCACCCACCUCUCCCACAAUCGGAUCCCAGG
B3: UGhigh RNA (ssRNA)
RNA: UGCUGGGAUGGUCAUGGUGGGUGACCCUGGGAUGGCCGCGGUGGGUGACCCUGGAAUGGU

Experiments:
Test in all cases: fluorescence anisotropy
MYCN 1-154 = MYCN 1-154 (UniProt P04198 1-154)
MYCN FL = MYCN FL (UniProt P04198 1-464)
MYCN 1-154 dMBII = MYCN 1-154 dMBII (UniProt P04198 1-154, del111-134)

Row | Binder | binding result (MYCN 1-154) | Kd (MYCN FL) | binding result (MYCN 1-154 dMBII)
1 | B1 | binds |  | 
2 | B2 |  | 511 nM | 
3 | B3 |  | 175 nM | binds

Source: doi:10.1101/2023.08.16.553474
